Experimental findings from article PMC9473479 are described below.

The target in assay [1] is S40-H StrepII-tagged at its C-terminus (murine SPD scaffold carrying EsxH in the collagen-like region, CRD replaced by the murine CD40L 115-260 ectodomain) (Mus musculus | Mycobacterium tuberculosis | murine) (UniProt P27548). Briefly: non-reducing SDS-PAGE and Western blot.
The target is the same in assay [2]. Briefly: SEC; 50x-concentrated supernatant of LV::S40-H-StrepII-transduced HEK293T cells on Superose 6 HR 10/30, 50 mM phosphate buffer pH 7.5, 150 mM NaCl; calibrated with standard proteins; fractions analysed by Western blot in reducing conditions.

“And” between values parts separate entries of the source, which are not always exact repeats. Identical values can stand only once.

In the case of “S40-H StrepII-tagged at its C-terminus (murine SPD scaffold carrying EsxH in the collagen-like region, CRD replaced by the murine CD40L 115-260 ectodomain) (from UniProt P27548 115-260)”, the stoichiometry N in assay [1] is 2 and 4 and 3; in assay [2], 2 and 3 and 4.

For orientation: stoichiometry N means the number of molecules, sites or subunits per partner or assembly.
